This note sets out measurements from patent US20260008852A1.

This assay concerns the target B7-H3 on CHO-K1 cells stably transfected with B7-H3 (GenScript #M00536) (UniProt Q5ZPR3). The experiment in a line: cell-based or functional assay.

Chain of B7-H3 on CHO-K1 cells stably transfected with B7-H3 (GenScript #M00536) (Q5ZPR3 29-534 limits assumed): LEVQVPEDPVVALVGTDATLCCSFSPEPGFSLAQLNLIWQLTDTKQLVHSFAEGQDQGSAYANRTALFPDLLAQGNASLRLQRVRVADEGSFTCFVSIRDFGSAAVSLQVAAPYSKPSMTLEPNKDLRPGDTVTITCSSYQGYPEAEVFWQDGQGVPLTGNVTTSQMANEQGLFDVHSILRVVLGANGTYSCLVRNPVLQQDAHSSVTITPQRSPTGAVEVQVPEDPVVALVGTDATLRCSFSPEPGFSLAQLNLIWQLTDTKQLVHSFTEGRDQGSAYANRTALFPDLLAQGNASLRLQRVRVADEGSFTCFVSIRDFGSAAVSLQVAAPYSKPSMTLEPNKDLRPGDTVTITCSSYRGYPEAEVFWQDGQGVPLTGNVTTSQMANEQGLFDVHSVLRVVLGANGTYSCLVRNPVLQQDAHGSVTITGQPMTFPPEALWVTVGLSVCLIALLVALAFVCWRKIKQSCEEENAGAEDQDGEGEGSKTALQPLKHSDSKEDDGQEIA

Benchmark MGA-271 (antibody) registered an ADCC reporter assay, EC50 Value, CHOK1/B7-H3 cells of 4.55 µg/mL and an ADCC reporter assay, Max RLU, CHOK1/B7-H3 cells of 162000 RLU.
